Data from publication PMC8546555, “Colicin-Mediated Transport of DNA through the Iron Transporter FepA” (mBio, 2021).

Biological target: T1, FepA overexpressed from pBAD/Myc-HisB (E. coli, UniProt P05825 23-746)
T1 construct: FepA, outer membrane ferric enterobactin transporter of E. coli; source: E. coli BW25113 ΔFepA (JW5086-3) or BL21(DE3), pBAD/Myc-HisB, overexpressed; on live cells, or in a detergent-extracted OM protein fraction
T1 sequence: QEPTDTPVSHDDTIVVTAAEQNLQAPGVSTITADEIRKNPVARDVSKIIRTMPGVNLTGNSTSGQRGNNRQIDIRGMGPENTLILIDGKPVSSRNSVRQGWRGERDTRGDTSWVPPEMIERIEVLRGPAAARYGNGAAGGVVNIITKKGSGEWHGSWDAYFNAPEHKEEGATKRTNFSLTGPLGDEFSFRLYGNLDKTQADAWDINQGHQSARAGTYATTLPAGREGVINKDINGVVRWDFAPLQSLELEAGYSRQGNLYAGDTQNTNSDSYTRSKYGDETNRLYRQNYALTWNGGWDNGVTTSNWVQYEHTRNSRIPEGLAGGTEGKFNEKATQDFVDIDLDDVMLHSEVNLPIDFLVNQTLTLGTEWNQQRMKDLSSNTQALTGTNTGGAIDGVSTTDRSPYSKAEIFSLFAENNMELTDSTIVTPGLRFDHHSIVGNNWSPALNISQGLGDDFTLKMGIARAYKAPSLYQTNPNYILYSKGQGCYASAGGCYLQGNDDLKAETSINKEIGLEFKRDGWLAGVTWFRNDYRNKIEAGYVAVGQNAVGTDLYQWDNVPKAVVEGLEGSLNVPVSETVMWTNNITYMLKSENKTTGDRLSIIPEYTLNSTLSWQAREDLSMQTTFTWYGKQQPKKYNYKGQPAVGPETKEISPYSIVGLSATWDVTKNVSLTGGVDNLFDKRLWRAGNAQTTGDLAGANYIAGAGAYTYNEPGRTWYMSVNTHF
Assay: native MS; 60 mg ColB-RT added to a 5-liter culture of BW25113(ΔFepA) cells overexpressing FepA; complex detergent extracted, purified by nickel affinity and size exclusion chromatography; 100 mM ammonium acetate, 1% β-OG, pH 6.9
Settings: one partner purified

B1: ColB-RT (341 aa) (domain or fragment)
chain: MSDNEGSVPTEGIDYGDTMVVWPSTGRIPGGDVKPGGSSGLAPSMPPGWGDYSPQGIALVQSVLFPGIIRRIILDKELEEGDWSGWSVSVHSPWGNEKVSAARTVLENGLRGGLPEPSRPAAVSFARLEPASGNEQKIIRLMVTQQLEQVTDIPASQLPAAGNNVPVKYRLTDLMQNGTQYMAIIGGIPMTVPVVDAVPVPDRSRPGTNIKDVYSAPVSPNLPDLVLSVGQMNTPVRSNPEIQEDGVISETGNYVEAGYTMSSNNHDVIVRFPEGSGVSPLYISAVEILDSNSLSQRQEAENNAKDDFRVKKEQENDEKTVLTKTSEVIISVGDKVGEYLG
notes: not shown: His6, C-terminal, kept
  stoichiometry N: 1
